From publication PMC9205888, “Efficient discrimination against RNA-containing primers by human DNA polymerase ε”

What was measured:
[1] = target: T1, hPolεCD (DNA polymerase ε catalytic domain, exo-) (Homo sapiens, UniProt Q07864 27-1172, D275N;E277Q;del185-209); assay: BLI; 125 mM NaCl, no dTTP/Mg2+; BLI (Octet K2): 30 mM Tris-Hepes pH 7.8, 100-150 mM NaCl, 2 mM TCEP, 0.002% Tween 20, 23 °C; EMSA: 20 mM Tris-Hepes pH 7.8, 100 mM NaCl, 2% glycerol, 2 mM TCEP, 0.2 mg/mL BSA, room temperature; details: protein: recombinant; tags: none in final protein (N-terminal His6-Sumo cleaved); label: 5' BiotinTEG on template; template 5' overhang 9 nt and 3' overhang 3 nt
T1 sequence (Q07864 other isoform, or with tags, fused parts or gaps D275N;E277Q;del185-209): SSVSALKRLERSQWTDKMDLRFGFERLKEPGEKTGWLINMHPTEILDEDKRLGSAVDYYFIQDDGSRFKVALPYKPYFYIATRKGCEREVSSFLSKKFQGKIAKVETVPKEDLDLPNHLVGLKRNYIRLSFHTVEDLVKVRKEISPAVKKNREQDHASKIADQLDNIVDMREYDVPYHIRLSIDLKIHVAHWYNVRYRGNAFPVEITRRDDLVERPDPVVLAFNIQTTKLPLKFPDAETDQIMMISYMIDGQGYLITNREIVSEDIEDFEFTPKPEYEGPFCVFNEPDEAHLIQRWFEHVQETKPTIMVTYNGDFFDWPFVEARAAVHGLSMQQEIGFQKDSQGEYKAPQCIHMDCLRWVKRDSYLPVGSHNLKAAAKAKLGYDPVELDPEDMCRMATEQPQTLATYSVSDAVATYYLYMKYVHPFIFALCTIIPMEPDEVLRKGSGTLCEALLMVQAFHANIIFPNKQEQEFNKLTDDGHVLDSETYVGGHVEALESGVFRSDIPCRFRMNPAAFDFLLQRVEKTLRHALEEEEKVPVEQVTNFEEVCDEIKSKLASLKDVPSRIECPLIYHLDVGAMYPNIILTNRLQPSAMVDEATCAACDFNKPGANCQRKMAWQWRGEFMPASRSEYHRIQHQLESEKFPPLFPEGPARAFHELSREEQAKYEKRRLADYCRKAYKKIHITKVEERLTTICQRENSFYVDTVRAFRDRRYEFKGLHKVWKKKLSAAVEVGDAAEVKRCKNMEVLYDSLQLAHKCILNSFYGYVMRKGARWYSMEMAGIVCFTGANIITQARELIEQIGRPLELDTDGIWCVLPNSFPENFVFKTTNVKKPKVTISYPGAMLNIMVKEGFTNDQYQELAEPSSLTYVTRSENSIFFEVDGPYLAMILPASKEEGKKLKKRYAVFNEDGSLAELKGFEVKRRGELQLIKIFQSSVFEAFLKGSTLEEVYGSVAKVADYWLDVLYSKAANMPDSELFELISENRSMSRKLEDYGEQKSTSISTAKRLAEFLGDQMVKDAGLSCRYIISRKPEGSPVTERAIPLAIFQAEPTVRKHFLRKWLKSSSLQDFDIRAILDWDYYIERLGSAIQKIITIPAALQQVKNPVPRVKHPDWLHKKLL

[2] = target: T1, hPolεCD (DNA polymerase ε catalytic …); assay: BLI; 100 mM NaCl, no dTTP/Mg2+; BLI (Octet K2): 30 mM Tris-Hepes pH 7.8, 100-150 mM NaCl, 2 mM TCEP, 0.002% Tween 20, 23 °C; EMSA: 20 mM Tris-Hepes pH 7.8, 100 mM NaCl, 2% glycerol, 2 mM TCEP, 0.2 mg/mL BSA, room temperature; details: protein: recombinant; tags: none in final protein (N-terminal His6-Sumo cleaved); label: 5' BiotinTEG on template; template 5' overhang 9 nt and 3' overhang 3 nt
[3] = target: T1, hPolεCD (DNA polymerase ε catalytic …); assay: BLI; 100 mM NaCl, 50 µM dTTP, 5 mM Mg2+; BLI (Octet K2): 30 mM Tris-Hepes pH 7.8, 100-150 mM NaCl, 2 mM TCEP, 0.002% Tween 20, 23 °C; EMSA: 20 mM Tris-Hepes pH 7.8, 100 mM NaCl, 2% glycerol, 2 mM TCEP, 0.2 mg/mL BSA, room temperature; details: protein: recombinant; tags: none in final protein (N-terminal His6-Sumo cleaved); label: 5' BiotinTEG on template; template 5' overhang 9 nt and 3' overhang 3 nt
[4] = target: T1, hPolεCD (DNA polymerase ε catalytic …); assay: BLI; 150 mM NaCl, no dTTP/Mg2+; BLI (Octet K2): 30 mM Tris-Hepes pH 7.8, 100-150 mM NaCl, 2 mM TCEP, 0.002% Tween 20, 23 °C; EMSA: 20 mM Tris-Hepes pH 7.8, 100 mM NaCl, 2% glycerol, 2 mM TCEP, 0.2 mg/mL BSA, room temperature; details: protein: recombinant; tags: none in final protein (N-terminal His6-Sumo cleaved); label: 5' BiotinTEG on template; template 5' overhang 9 nt and 3' overhang 3 nt
[5] = target: T1, hPolεCD (DNA polymerase ε catalytic …); assay: EMSA; 100 mM NaCl, 0.5 µM DNA; active fraction titration (55.4 ± 4.3%); BLI (Octet K2): 30 mM Tris-Hepes pH 7.8, 100-150 mM NaCl, 2 mM TCEP, 0.002% Tween 20, 23 °C; EMSA: 20 mM Tris-Hepes pH 7.8, 100 mM NaCl, 2% glycerol, 2 mM TCEP, 0.2 mg/mL BSA, room temperature; details: protein: recombinant; tags: none in final protein (N-terminal His6-Sumo cleaved); label: 5' Cy3 on primer; template 5' overhang 5 nt

Binder | Kd [2] | also measured
D11 template:primer (dsDNA, primer 3'-terminal 2',3'-dideoxy-C) DNA 1: AATACATAAGCGCTCCAGGCAAT DNA 2: GCCTGGAGCGC | 61.4 ± 12 nM | Kd [1]: 532 ± 53 nM; Kd [3]: 120 ± 11 nM; Kd [4]: 1520 ± 91 nM
R11 template:primer (DNA:RNA, RNA primer) DNA: AATACATAAGCGCTCCAGGCAAT RNA: GCCUGGAGCGC | 65.8 ± 8.8 nM | 
D10-R1 template:primer (mixed, primer nt 1-10 DNA, nt 11 3'-deoxy-C (2'-OH)) DNA 1: AATACATAAGCGCTCCAGGCAAT DNA 2: GCCTGGAGCGC | 45.6 ± 6.1 nM | 
R4-D7 template:primer (mixed, primer nt 1-4 RNA, nt 5-11 DNA, 3' ddC) DNA: AATACATAAGCGCTCCAGGCAAT RNA: GCCUGGAGCGC | 58.6 ± 1.3 nM | Kd [3]: 83 ± 3.3 nM
EMSA D15 template:primer (dsDNA) DNA 1: ATTATGGCAGCTCGGAGTCC DNA 2: GGACTCCGAGCTGCC |  | binding result [5]: binds
R6-D5 template:primer (mixed, primer nt 1-6 RNA, nt 7-11 DNA, 3' ddC) DNA: AATACATAAGCGCTCCAGGCAAT RNA: GCCUGGAGCGC | 69.8 ± 6.4 nM | 
R8-D3 template:primer (mixed, primer nt 1-8 RNA, nt 9-11 DNA, 3' ddC) DNA: AATACATAAGCGCTCCAGGCAAT RNA: GCCUGGAGCGC | 62.5 ± 6.1 nM | 
R10-D1 template:primer (mixed, primer nt 1-10 RNA, nt 11 2',3'-dideoxy-C) DNA: AATACATAAGCGCTCCAGGCAAT RNA: GCCUGGAGCGC | 73 ± 14 nM | 
